Measurements as given in patent US20180038860A1 (published 2018).
Read-outs that look alike come from different tables or passages of the source. Blank lines part the entries; values can stand above or below the molecule they belong to. Bridge positions count the residues as written; N and C are the ends. Side chains are listed from the residue outwards. * marks the point of attachment. Biotin = O=C1N[C@H]2[C@H](CS[C@H]2CCCCC(=O)*)N1; AEEA = NCCOCCOCC(=O)O

Assays:
Experiment in all cases: cell-based or functional assay
hCCR7 (human) = hCCR7 (human) (UniProt P32248)
Sequence of hCCR7 (human) (P32248 25-378 limits assumed): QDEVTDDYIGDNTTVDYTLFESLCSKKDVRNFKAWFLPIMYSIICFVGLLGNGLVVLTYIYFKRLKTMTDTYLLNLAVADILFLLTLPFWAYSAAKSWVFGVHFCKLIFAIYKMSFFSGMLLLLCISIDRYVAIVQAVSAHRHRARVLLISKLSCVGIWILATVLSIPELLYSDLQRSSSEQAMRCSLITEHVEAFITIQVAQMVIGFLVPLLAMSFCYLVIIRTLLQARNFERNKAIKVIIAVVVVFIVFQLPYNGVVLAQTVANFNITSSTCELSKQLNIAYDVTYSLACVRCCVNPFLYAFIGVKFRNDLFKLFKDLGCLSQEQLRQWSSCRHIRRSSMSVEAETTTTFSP

[1] = target: T1, CCR6 on lymphocytes in blood of healthy donors (human) (UniProt P51684)
T1 sequence (looked up): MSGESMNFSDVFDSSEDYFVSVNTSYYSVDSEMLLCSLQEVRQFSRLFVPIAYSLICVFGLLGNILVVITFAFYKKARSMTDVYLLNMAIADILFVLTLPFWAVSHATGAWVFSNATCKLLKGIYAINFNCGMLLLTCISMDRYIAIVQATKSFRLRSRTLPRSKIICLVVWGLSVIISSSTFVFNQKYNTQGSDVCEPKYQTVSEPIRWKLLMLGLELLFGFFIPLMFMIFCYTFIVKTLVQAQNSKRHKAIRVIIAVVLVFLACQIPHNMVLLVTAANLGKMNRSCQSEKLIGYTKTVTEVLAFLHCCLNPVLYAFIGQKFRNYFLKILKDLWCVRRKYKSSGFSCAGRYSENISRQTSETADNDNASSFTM

hCCR6 (human) = target: T2, hCCR6 (human) (UniProt P51684)
T2 sequence (looked up): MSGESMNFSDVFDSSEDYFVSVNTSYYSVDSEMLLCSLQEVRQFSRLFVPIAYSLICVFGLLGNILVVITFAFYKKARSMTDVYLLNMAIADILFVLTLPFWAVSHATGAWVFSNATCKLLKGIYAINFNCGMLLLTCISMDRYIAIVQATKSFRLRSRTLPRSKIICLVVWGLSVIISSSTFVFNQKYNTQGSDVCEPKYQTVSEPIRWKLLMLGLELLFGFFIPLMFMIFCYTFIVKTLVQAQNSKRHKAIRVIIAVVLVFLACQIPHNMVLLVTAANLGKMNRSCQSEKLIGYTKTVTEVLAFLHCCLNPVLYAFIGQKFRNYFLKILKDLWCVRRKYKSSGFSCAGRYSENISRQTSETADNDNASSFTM

hCCR2b (human) = hCCR2b (human) (UniProt P41597)
Sequence of hCCR2b (human) (P41597 other isoform, or with tags, fused parts or gaps limits assumed): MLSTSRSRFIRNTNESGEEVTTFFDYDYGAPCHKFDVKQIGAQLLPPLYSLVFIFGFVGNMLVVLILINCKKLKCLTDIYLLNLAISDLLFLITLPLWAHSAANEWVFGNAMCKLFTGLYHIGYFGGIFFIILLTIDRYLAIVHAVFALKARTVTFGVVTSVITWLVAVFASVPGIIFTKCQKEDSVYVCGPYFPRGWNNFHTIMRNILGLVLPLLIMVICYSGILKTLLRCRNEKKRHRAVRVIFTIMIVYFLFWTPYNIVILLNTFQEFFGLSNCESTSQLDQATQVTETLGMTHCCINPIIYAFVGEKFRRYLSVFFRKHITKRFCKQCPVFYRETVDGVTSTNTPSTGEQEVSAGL

hCCR4 = target: T3, hCCR4 (human, UniProt P51679 1-360)
T3 sequence (looked up): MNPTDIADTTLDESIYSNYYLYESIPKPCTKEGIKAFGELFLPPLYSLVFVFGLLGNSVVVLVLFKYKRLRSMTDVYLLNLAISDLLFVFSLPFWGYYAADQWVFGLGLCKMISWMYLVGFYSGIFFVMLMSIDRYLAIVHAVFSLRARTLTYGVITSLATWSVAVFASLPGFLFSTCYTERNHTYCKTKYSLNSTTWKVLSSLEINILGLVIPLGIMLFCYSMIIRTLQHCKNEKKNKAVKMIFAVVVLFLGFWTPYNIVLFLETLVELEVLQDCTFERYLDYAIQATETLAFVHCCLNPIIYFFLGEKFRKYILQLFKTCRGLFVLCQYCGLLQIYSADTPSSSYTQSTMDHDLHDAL

hCXCR3 (human) [2] = target: hCXCR3 (human) (UniProt P49682)
Sequence of hCXCR3 (human) (P49682 whole entry): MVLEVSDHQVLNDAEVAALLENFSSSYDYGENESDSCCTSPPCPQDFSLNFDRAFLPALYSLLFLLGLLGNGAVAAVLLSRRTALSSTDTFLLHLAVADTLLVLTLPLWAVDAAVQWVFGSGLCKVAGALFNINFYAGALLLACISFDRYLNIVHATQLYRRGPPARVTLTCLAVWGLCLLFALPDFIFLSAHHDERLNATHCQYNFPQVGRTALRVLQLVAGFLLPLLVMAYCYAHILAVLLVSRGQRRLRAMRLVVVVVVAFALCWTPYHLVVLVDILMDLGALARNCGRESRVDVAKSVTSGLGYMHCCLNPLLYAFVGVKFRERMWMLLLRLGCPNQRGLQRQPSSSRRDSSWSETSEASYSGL

hCCR9 (human) = hCCR9 (human) (UniProt P51686)
Sequence of hCCR9 (human) (P51686 whole entry): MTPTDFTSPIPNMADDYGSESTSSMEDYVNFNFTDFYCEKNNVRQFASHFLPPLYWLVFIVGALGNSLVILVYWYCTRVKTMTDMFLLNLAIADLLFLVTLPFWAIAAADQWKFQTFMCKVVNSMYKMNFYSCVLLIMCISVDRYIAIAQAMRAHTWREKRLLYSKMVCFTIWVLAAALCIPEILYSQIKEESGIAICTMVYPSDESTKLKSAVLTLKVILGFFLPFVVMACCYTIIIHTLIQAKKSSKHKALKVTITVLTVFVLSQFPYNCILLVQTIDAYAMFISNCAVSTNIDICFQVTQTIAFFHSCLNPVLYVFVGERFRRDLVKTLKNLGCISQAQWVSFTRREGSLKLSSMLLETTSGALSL

hCCR10 = target: T4, hCCR10 (human, UniProt P46092 1-362)
T4 sequence (looked up): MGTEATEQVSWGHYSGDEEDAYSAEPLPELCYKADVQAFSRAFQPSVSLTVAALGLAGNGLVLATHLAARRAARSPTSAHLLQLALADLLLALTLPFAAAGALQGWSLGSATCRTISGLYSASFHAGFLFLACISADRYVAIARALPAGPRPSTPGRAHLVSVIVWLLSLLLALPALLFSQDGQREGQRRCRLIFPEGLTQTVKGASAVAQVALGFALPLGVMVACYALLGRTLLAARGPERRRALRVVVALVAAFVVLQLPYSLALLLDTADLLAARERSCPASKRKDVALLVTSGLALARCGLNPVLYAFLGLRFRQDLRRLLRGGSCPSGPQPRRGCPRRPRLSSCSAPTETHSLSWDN

hCXCR3 (human) [3] = target: hCXCR3 (human) (UniProt P49682); remark: listed apart in the source

- reduction of CCR6-expressing cells after column passage (flow cytometry) [1]: < 15%
Molecule: biotinylated MIP-3alpha coupled matrix (from UniProt P78556 27-96) (ligand)

- EC50, Aequorin assay (agonist activity) (hCCR6 (human)): 1 nM
Molecule: recombinant native MIP-3α (from UniProt P78556 27-96) (ligand)

- EC50, Aequorin assay (partial agonist) (hCCR2b (human)): 23.5 nM
Molecule: recombinant native MCP-2 (from UniProt P80075 24-99) (ligand)

- EC50, Aequorin assay (agonist activity) (hCCR9 (human)): 63.6 nM
Molecule: biotinTECK(Met to Nleu substitution) (CCL25), derivatised at the ε-amino side chain functionality of Lys72 with PEG-Biotin (from UniProt O15444 25-97) (ligand)

- EC50, Aequorin assay (agonist activity) (hCXCR3 (human) [3]): 0.7 nM
B3: recombinant native ITAC (ligand, UniProt O14625 22-94, looked up)
chain: FPMFKRGRCLCIGPGVKAVKVADIEKASIMYPSNNCDKIEVIITLKENKGQRCLNPKSKQARLIIKKVERKNF

Continued, molecule first:

Molecule: recombinant native MIP-3β (from UniProt Q99731 22-98) (ligand)
- EC50, Aequorin assay (agonist activity) (hCCR7 (human)): 1.6 nM

Molecule: recombinant native TARC (from UniProt Q92583 24-94) (ligand)
- EC50, Aequorin assay (agonist activity) (hCCR4): 2.6 nM

Molecule: recombinant native IP-10 (from UniProt P02778 22-98) (ligand)
- EC50, Aequorin assay (agonist activity) (hCXCR3 (human) [2]): 4.4 nM

Molecule: recombinant native TECK (from UniProt O15444 24-150) (ligand)
- EC50, Aequorin assay (agonist activity) (hCCR9 (human)): 67.9 nM

B1: biotinTARC (CCL17), TARC derivatised at the ε-amino side chain functionality of Lys(72) with PEG-Biotin (ligand)
chain: ARGTNVGRECCLEYFKGAIPLRKLKTWYQTSEDCSRDAIVFVTVQGRAICSDPNNKRVKNAVKYLQSLERSK([AEEA-Biotin])-NH2
modifications: disulfide 10-34, 11-50; ends not checked; also: TFA salt
- EC50, Aequorin assay (agonist activity) (hCCR4): 3.1 nM

B2: recombinant native CTAC (ligand, UniProt Q9Y4X3 25-112, looked up)
chain: FLLPPSTACCTQLYRKPLSDKLLRKVIQVELQEADGDCHLQAFVLHLAQRSICIHPQNPSLSQWFEHQERKLHGTLPKLNFGMLRKMG
- EC50, Aequorin assay (agonist activity) (hCCR10): 33.5 nM

B4: biotinCTAC (CCL27), CTAC derivatised at the ε-amino side chain functionality of Lys(87) with PEG-Biotin (ligand)
chain: FLLPPSTACCTQLYRKPLSDKLLRKVIQVELQEADGDCHLQAFVLHLAQRSICIHPQNPSLSQWFEHQERKLHGTLPKLNFGMLRKK([AEEA-Biotin])G-OH
modifications: disulfide 10-53, 9-38; ends not checked; also: TFA salt
- EC50, Aequorin assay (agonist activity) (hCCR10): 49.4 nM

B5: recombinant native MDC (ligand, UniProt O00626 25-93, looked up)
chain: GPYGANMEDSVCCRDYVRYRLPLRVVKHFYWTSDSCPRPGVVLLTFRDKEICADPRVPWVKMILNKLSQ
- EC50, Aequorin assay (agonist activity) (hCCR4): 3.6 nM
